Key:
[1] = target: OD_(CN54)+-Fc (outer domain of HIV-1 CN54 gp120, residues 251-481, with V295N+A394T, fused at its C terminus to the Fc domain of human IgG1) (HIV-1 CN54 | human); assay: SDS-PAGE under non-reducing conditions; purified Fc fusion proteins under non-reducing conditions; data not shown
[2] = target: gp120_(CN54)+-Fc (HIV-1 CN54 gp120 with V295N+A394T, fused at its C terminus to the Fc domain of human IgG1) (HIV-1 CN54 | human); assay: as above

OD_(CN54)+-Fc (outer domain of HIV-1 CN54 gp120, residues 251-481, with V295N+A394T, fused at its C terminus to the Fc domain of human IgG1) (Fc fusion)
stoichiometry N [1]: 2

gp120_(CN54)+-Fc (HIV-1 CN54 gp120 with V295N+A394T, fused at its C terminus to the Fc domain of human IgG1) (Fc fusion)
stoichiometry N [2]: 2

From article PMC1891314
